According to the supplement of paper PMC9112550, “Optimization of the antimicrobial peptide Bac7 by deep mutational scanning” (BMC Biology, 2022):

What follows are sequences tested on Escherichia coli TOP10 (assay: shrunken log2 fold change of peptide-encoding DNA abundance (4.5 h post-induction vs induction); higher = less antimicrobial activity (less host growth inhibition)). Conditions: time post-induction: 4.5 h; library: site-saturation at positions 5, 18, 19, 20.
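Further: peptides expressed intracellularly from a pBAD plasmid library in pooled LB shake-flask culture, induced with 0.3% L-arabinose, DNA abundance read by NGS, three biological replicates, DESeq2 with apeglm shrinkage.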

Row | Sequence | shrunken log2 fold change
1 | RRIRFRPPRLPRPRPRPRKGPRP | 0.447
2 | RRIRSRPPRLPRPRPRPKSTPRP | -0.556
3 | RRIRTRPPRLPRPRPRPCCFPRP | -0.114
4 | RRIRGRPPRLPRPRPRPDWNPRP | 0.361
5 | RRIRIRPPRLPRPRPRPCNLPRP | -0.877
6 | RRIRFRPPRLPRPRPRPEITPRP | -0.208
7 | RRIRTRPPRLPRPRPRPTFRPRP | -0.0105
8 | RRIRVRPPRLPRPRPRPLTEPRP | -0.503
9 | RRIRFRPPRLPRPRPRPPTSPRP | 0.403
10 | RRIRRRPPRLPRPRPRPINGPRP | -0.0719
11 | RRIRCRPPRLPRPRPRPAFAPRP | 0.134
12 | RRIRCRPPRLPRPRPRPCELPRP | -0.146
13 | RRIRSRPPRLPRPRPRPTMVPRP | 0.0872
14 | RRIRHRPPRLPRPRPRPARYPRP | 0.0518
15 | RRIRFRPPRLPRPRPRPSCNPRP | -0.714
16 | RRIRRRPPRLPRPRPRPLWQPRP | 0.318
17 | RRIRTRPPRLPRPRPRPTQIPRP | 0.0112
18 | RRIRNRPPRLPRPRPRPTEHPRP | 0.141
19 | RRIRYRPPRLPRPRPRPGKSPRP | 0.0131
20 | RRIRTRPPRLPRPRPRPEIGPRP | -0.103
21 | RRIRDRPPRLPRPRPRPGWKPRP | 0.136
22 | RRIRLRPPRLPRPRPRPKCVPRP | 0.0912
23 | RRIRARPPRLPRPRPRPQPGPRP | 0.563
24 | RRIRKRPPRLPRPRPRPDYHPRP | -0.244
25 | RRIRDRPPRLPRPRPRPYIVPRP | 0.0363

Row | Sequence | shrunken log2 fold change
26 | RRIRIRPPRLPRPRPRPSCTPRP | -0.407
27 | RRIRSRPPRLPRPRPRPMSDPRP | -0.195
28 | RRIRTRPPRLPRPRPRPISFPRP | -0.199
29 | RRIRVRPPRLPRPRPRPVGQPRP | 0.0877
30 | RRIRDRPPRLPRPRPRPKHHPRP | -0.272
31 | RRIRARPPRLPRPRPRPLENPRP | 0.595
32 | RRIRVRPPRLPRPRPRPPCSPRP | -0.116
33 | RRIRIRPPRLPRPRPRPWIVPRP | -0.157
34 | RRIRLRPPRLPRPRPRPAHLPRP | 0.343
35 | RRIRSRPPRLPRPRPRPHRPPRP | 0.0831
36 | RRIRDRPPRLPRPRPRPKHPPRP | 0.0483
37 | RRIRKRPPRLPRPRPRPWNIPRP | -0.275
38 | RRIRARPPRLPRPRPRPYHQPRP | -0.885
39 | RRIRNRPPRLPRPRPRPCEEPRP | -0.0104
40 | RRIRVRPPRLPRPRPRPSQEPRP | -0.549
41 | RRIRIRPPRLPRPRPRPNTNPRP | -0.905
42 | RRIRMRPPRLPRPRPRPTTLPRP | 0.34
43 | RRIRWRPPRLPRPRPRPAHTPRP | -0.172
44 | RRIRMRPPRLPRPRPRPHWDPRP | -0.145
45 | RRIRPRPPRLPRPRPRPDYYPRP | -0.346
46 | RRIRQRPPRLPRPRPRPKYIPRP | -1.11
47 | RRIRFRPPRLPRPRPRPRTYPRP | -0.794
48 | RRIRRRPPRLPRPRPRPNFIPRP | -0.481
49 | RRIRERPPRLPRPRPRPAFKPRP | 0.106
50 | RRIRMRPPRLPRPRPRPFYTPRP | -0.364

Row | Sequence | shrunken log2 fold change
51 | RRIRLRPPRLPRPRPRPSQHPRP | -0.169
52 | RRIRSRPPRLPRPRPRPEHAPRP | -0.0123
53 | RRIRIRPPRLPRPRPRPMRDPRP | 0.189
54 | RRIRTRPPRLPRPRPRPQIHPRP | -0.15
55 | RRIRCRPPRLPRPRPRPQCRPRP | -0.421
56 | RRIRPRPPRLPRPRPRPEWDPRP | 0.269
57 | RRIRYRPPRLPRPRPRPSPMPRP | -0.486
58 | RRIRPRPPRLPRPRPRPCHTPRP | -0.498
59 | RRIRWRPPRLPRPRPRPKFIPRP | -0.17
60 | RRIRRRPPRLPRPRPRPRVNPRP | 0.398
61 | RRIRWRPPRLPRPRPRPQRKPRP | 0.46
62 | RRIRVRPPRLPRPRPRPDQQPRP | 0.021
63 | RRIRGRPPRLPRPRPRPHCAPRP | 0.606
64 | RRIRSRPPRLPRPRPRPTCVPRP | 0.0671
65 | RRIRWRPPRLPRPRPRPACCPRP | 0.454
66 | RRIRIRPPRLPRPRPRPRDCPRP | -0.296
67 | RRIRSRPPRLPRPRPRPSVVPRP | -0.219
68 | RRIRERPPRLPRPRPRPPVPPRP | 0.45
69 | RRIRNRPPRLPRPRPRPAYLPRP | -0.284
70 | RRIRTRPPRLPRPRPRPRMLPRP | 0.292
71 | RRIRMRPPRLPRPRPRPHCVPRP | 0.0437
72 | RRIRWRPPRLPRPRPRPQSSPRP | -0.276
73 | RRIRGRPPRLPRPRPRPGIAPRP | 0.864
74 | RRIRIRPPRLPRPRPRPHADPRP | -0.178
75 | RRIRKRPPRLPRPRPRPSVRPRP | 0.528

Row | Sequence | shrunken log2 fold change
76 | RRIRFRPPRLPRPRPRPMEKPRP | 0.273
77 | RRIRRRPPRLPRPRPRPITMPRP | -0.0568
78 | RRIRQRPPRLPRPRPRPPWCPRP | 0.0207
79 | RRIRERPPRLPRPRPRPIEEPRP | -0.0104
80 | RRIRDRPPRLPRPRPRPALCPRP | 0.225
81 | RRIRTRPPRLPRPRPRPFPTPRP | 0.105
82 | RRIRERPPRLPRPRPRPYNIPRP | -0.184
83 | RRIRKRPPRLPRPRPRPNEPPRP | 0.027
84 | RRIRSRPPRLPRPRPRPCMHPRP | -0.514
85 | RRIRSRPPRLPRPRPRPSSAPRP | -0.0109
86 | RRIRGRPPRLPRPRPRPIATPRP | 3
87 | RRIRQRPPRLPRPRPRPTDQPRP | 0.411
88 | RRIRWRPPRLPRPRPRPWGSPRP | 0.0134
89 | RRIRRRPPRLPRPRPRPRPYPRP | 1.17
90 | RRIRKRPPRLPRPRPRPSTHPRP | -0.17
91 | RRIRDRPPRLPRPRPRPMMIPRP | 0.0818
92 | RRIRSRPPRLPRPRPRPTETPRP | 0.0721
93 | RRIRTRPPRLPRPRPRPLWSPRP | 0.0357
94 | RRIRMRPPRLPRPRPRPPAYPRP | 0.608
95 | RRIRARPPRLPRPRPRPDCSPRP | 0.958
96 | RRIRFRPPRLPRPRPRPDNDPRP | -0.188
97 | RRIRERPPRLPRPRPRPATTPRP | -0.0752
98 | RRIRSRPPRLPRPRPRPQEKPRP | -0.393
99 | RRIRYRPPRLPRPRPRPIWCPRP | -0.268
100 | RRIRVRPPRLPRPRPRPCSMPRP | -0.177

Row | Sequence | shrunken log2 fold change
101 | RRIRPRPPRLPRPRPRPYLQPRP | -0.831
102 | RRIRTRPPRLPRPRPRPFWVPRP | -0.0427
103 | RRIRYRPPRLPRPRPRPNGVPRP | 0.0238
104 | RRIRDRPPRLPRPRPRPACWPRP | 0.929
105 | RRIRFRPPRLPRPRPRPERTPRP | -0.0923
106 | RRIRHRPPRLPRPRPRPMRDPRP | 0.684
107 | RRIRQRPPRLPRPRPRPLFHPRP | -0.733
108 | RRIRMRPPRLPRPRPRPADKPRP | 0.318
109 | RRIRFRPPRLPRPRPRPMLLPRP | -0.128
110 | RRIRCRPPRLPRPRPRPGCIPRP | -0.385
111 | RRIRQRPPRLPRPRPRPWQDPRP | 0.07
112 | RRIRTRPPRLPRPRPRPGTKPRP | -0.122
113 | RRIRHRPPRLPRPRPRPHQYPRP | -0.52
114 | RRIRWRPPRLPRPRPRPDDAPRP | 0.368
115 | RRIRQRPPRLPRPRPRPTVHPRP | -0.367
116 | RRIRWRPPRLPRPRPRPSHEPRP | 0.0227
117 | RRIRERPPRLPRPRPRPHLHPRP | -0.485
118 | RRIRQRPPRLPRPRPRPVTHPRP | 4.01
119 | RRIRIRPPRLPRPRPRPYLKPRP | 0.000419
120 | RRIRARPPRLPRPRPRPTKTPRP | 0.247
121 | RRIRWRPPRLPRPRPRPPCNPRP | 0.0762
122 | RRIRGRPPRLPRPRPRPDCGPRP | 0.879
123 | RRIRPRPPRLPRPRPRPMYIPRP | -0.0479
124 | RRIRQRPPRLPRPRPRPNPPPRP | 0.0904
125 | RRIRIRPPRLPRPRPRPRDMPRP | -0.902
